± gives the uncertainty stated by the source.
Experiment: protein stability index of a GFP-peptide fusion (yeast GPS) (PSI 1-4); higher = more stable; sorted into four equal gates, so the index is relative within each strain
In short: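 Mid-log yeast cultures in leucine-free medium, carrying a pooled plasmid library, were sorted into four equal gates by their GFP/Cherry fluorescence ratio. Each plasmid expressed Cherry along with GFP fused upstream of a tiled 17-residue yeast protein peptide. Plasmids recovered from each gate were PCR-amplified and Illumina-sequenced, with reads assigned to strains by barcodes. The protein stability index was obtained by summing each gate's read frequency weighted by its gate number.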

For CRNILGVTSLIKNLGLP [RPP1], the protein stability index (doa10∆) was 1.81 ± 0.054, the protein stability index (pdr5∆) was 1.58 ± 0.051 and the protein stability index (san1∆) was 1.23 ± 0.092. It also gave a protein stability index (ubr1∆) of 1.75 ± 0.045.
For CRRMILTHVDLIEKFLR [RPB10], the protein stability index (doa10∆) was 2.85 ± 0.21, the protein stability index (pdr5∆) was 1.46 ± 0.11 and the protein stability index (ubr1∆) was 2.04 ± 0.099.
For CSIEPIAAKLINSGLYS [YML103C/NUP188], the protein stability index (doa10∆) was 1.77 ± 0.066, the protein stability index (pdr5∆) was 1.29 ± 0.065 and the protein stability index (san1∆) was 1.67 ± 0.12. For the same sequence, the protein stability index (ubr1∆) was 1.19 ± 0.062.
CTFSMEPYHFISNYNTK [SRB8] gave a protein stability index (doa10∆) of 1.99 ± 0.083, a protein stability index (pdr5∆) of 2.09 ± 0.05 and a protein stability index (san1∆) of 1.5 ± 0.079. It also gave a protein stability index (ubr1∆) of 1.71 ± 0.052.
For DADKLSFNCENFFQAPQ [YML031W/NDC1], the protein stability index (doa10∆) was 2.37 ± 0.08, the protein stability index (pdr5∆) was 2.15 ± 0.058 and the protein stability index (san1∆) was 2.36 ± 0.06. For the same sequence, the protein stability index (ubr1∆) was 2.3 ± 0.058.
With DAFVATAFATEFFVQVL [DLS1] the protein stability index (doa10∆) was 2.98 ± 0.089, the protein stability index (pdr5∆) was 3.03 ± 0.089 and the protein stability index (san1∆) was 3.12 ± 0.077. For the same sequence, the protein stability index (ubr1∆) was 3.09 ± 0.072.
Sequence DAIQAGIWNDLGSGSNV [PUP1] has a protein stability index (doa10∆) of 2.71 ± 0.26.
In the case of DAMVTRTPVIISLRNNH [SMD2], the protein stability index (doa10∆) is reported as 1.61 ± 0.058, the protein stability index (pdr5∆) is reported as 1.85 ± 0.056 and the protein stability index (san1∆) is reported as 1.43 ± 0.12. For the same sequence, the protein stability index (ubr1∆) was 1.7 ± 0.073.
Sequence DANLLGAEVLIKGSKLS [COR1] has a protein stability index (doa10∆) of 2.94 ± 0.072, a protein stability index (pdr5∆) of 2.85 ± 0.079 and a protein stability index (san1∆) of 2.63 ± 0.12. It also gave a protein stability index (ubr1∆) of 2.63 ± 0.042.
Sequence DATNTSYKMIQLDAYGE [SWP82] has a protein stability index (doa10∆) of 3.29 ± 0.087, a protein stability index (pdr5∆) of 3.39 ± 0.077 and a protein stability index (san1∆) of 3.25 ± 0.057. It also gave a protein stability index (ubr1∆) of 3.16 ± 0.05.
Sequence DAWVSAAHYNRERIKRG [PRP8] has a protein stability index (doa10∆) of 2.76 ± 0.13, a protein stability index (pdr5∆) of 1.81 ± 0.099 and a protein stability index (san1∆) of 2.6 ± 0.062. It also gave a protein stability index (ubr1∆) of 1.96 ± 0.15.
With DCLSFAPTLSQTYINQE [SSN2] the protein stability index (doa10∆) was 2.69 ± 0.074, the protein stability index (pdr5∆) was 2.76 ± 0.081 and the protein stability index (san1∆) was 2.77 ± 0.087. The protein stability index (ubr1∆) was 2.91 ± 0.048.
Sequence DCMIAHGAASFLKERLM [RPB2] has a protein stability index (doa10∆) of 3.03 ± 0.088, a protein stability index (pdr5∆) of 2.54 ± 0.068 and a protein stability index (san1∆) of 2.13 ± 0.1. The protein stability index (ubr1∆) was 2.09 ± 0.066.
For DCNSALDQLLVLEKKTR [RPN5], the protein stability index (doa10∆) was 2.31 ± 0.068, the protein stability index (pdr5∆) was 2.31 ± 0.1 and the protein stability index (san1∆) was 2.22 ± 0.058. For the same sequence, the protein stability index (ubr1∆) was 2.44 ± 0.083.
In the case of DDDDDDDDEVDYSEIQR [DSN1], the protein stability index (doa10∆) is reported as 2.98 ± 0.067, the protein stability index (pdr5∆) is reported as 3.49 ± 0.087 and the protein stability index (san1∆) is reported as 3.41 ± 0.044. The protein stability index (ubr1∆) was 3.16 ± 0.084.
In the case of DDDINWQELARSTDEFN [RPT5], the protein stability index (doa10∆) is reported as 3.18 ± 0.064, the protein stability index (pdr5∆) is reported as 3.21 ± 0.065 and the protein stability index (san1∆) is reported as 3.11 ± 0.048. The protein stability index (ubr1∆) was 3.2 ± 0.043.
DDDISDDEEDEIEENCL [RPN4] showed a protein stability index (doa10∆) of 3.48 ± 0.1, a protein stability index (pdr5∆) of 3.27 ± 0.089 and a protein stability index (san1∆) of 3.14 ± 0.08. The protein stability index (ubr1∆) was 3.32 ± 0.1.
DDDTFSDREMAALIASK [RPN2] showed a protein stability index (doa10∆) of 1.6 ± 0.079, a protein stability index (pdr5∆) of 1.55 ± 0.056 and a protein stability index (san1∆) of 1.32 ± 0.12. For the same sequence, the protein stability index (ubr1∆) was 1.79 ± 0.063.
Work on DDETPSCEVEEIGLLGG [SNU114] yielded a protein stability index (doa10∆) of 3.13 ± 0.11, a protein stability index (pdr5∆) of 3.35 ± 0.084 and a protein stability index (san1∆) of 3.26 ± 0.07. The protein stability index (ubr1∆) was 3.14 ± 0.065.
In the case of DDHSQVINPQQLLKGLS [DSN1], the protein stability index (doa10∆) is reported as 3.17 ± 0.1, the protein stability index (pdr5∆) is reported as 2.98 ± 0.084 and the protein stability index (san1∆) is reported as 3.03 ± 0.057. It also gave a protein stability index (ubr1∆) of 3.01 ± 0.068.
In the case of DDKVSVVEKEKIESLAG [UBP6], the protein stability index (doa10∆) is reported as 3.31 ± 0.2, the protein stability index (pdr5∆) is reported as 2.84 ± 0.24 and the protein stability index (san1∆) is reported as 2.89 ± 0.17. For the same sequence, the protein stability index (ubr1∆) was 3.37 ± 0.14.
For DDKYGRKFALEKLYIFY [SRP72], the protein stability index (doa10∆) was 2.71 ± 0.076, the protein stability index (pdr5∆) was 2.82 ± 0.081 and the protein stability index (san1∆) was 2.4 ± 0.061. For the same sequence, the protein stability index (ubr1∆) was 2.4 ± 0.055.
DDLKQKKEELVEIAYHK [RPO31] gave a protein stability index (doa10∆) of 3.18 ± 0.16, a protein stability index (pdr5∆) of 3.13 ± 0.072 and a protein stability index (san1∆) of 3.08 ± 0.14. For the same sequence, the protein stability index (ubr1∆) was 3.08 ± 0.082.
Work on DDNDVPGPLPDTDSKPS [YLR018C/POM34] yielded a protein stability index (doa10∆) of 2.9 ± 0.12, a protein stability index (pdr5∆) of 2.98 ± 0.084 and a protein stability index (san1∆) of 2.76 ± 0.11. The protein stability index (ubr1∆) was 2.38 ± 0.13.
DDQCMLITTYSKLSKNI [SIN4] showed a protein stability index (doa10∆) of 1.97 ± 0.065, a protein stability index (pdr5∆) of 2.42 ± 0.076 and a protein stability index (san1∆) of 1.87 ± 0.2. For the same sequence, the protein stability index (ubr1∆) was 2.01 ± 0.038.
In the case of DDSANIVNVNFMKSVIR [DIS3], the protein stability index (doa10∆) is reported as 2.92 ± 0.051, the protein stability index (pdr5∆) is reported as 3.1 ± 0.06 and the protein stability index (san1∆) is reported as 3.06 ± 0.069. It also gave a protein stability index (ubr1∆) of 3.03 ± 0.044.
For DDSTKFQLVNDVMDELI [SIR3], the protein stability index (doa10∆) was 3.29 ± 0.15, the protein stability index (pdr5∆) was 3.37 ± 0.15 and the protein stability index (san1∆) was 3.47 ± 0.1. It also gave a protein stability index (ubr1∆) of 3.39 ± 0.086.

Source: the supplement of paper PMC9732359
